Biological target: GST-RIM2 (KIAA0751) PDZ domain 1 (human)
Assay: modified ELISA, plated GST-RIM2 PDZ domain, biotinylated peptide 0.001-10 µM, curve fit; Relative EC50

YGRKKRRQRRRARGRRETWV (modifications not checked) [… (SEQ ID NO: 170)]
EC50: < 10 nM

— patent US20080090770A1, “Modulation of Muc1 Mediated Signal Transduction” (priority 2003, published 2008)
